Reference: publication PMC5806882, “Structural and biochemical characterization of the biuret hydrolase (BiuH) from the cyanuric acid catabolism pathway of Rhizobium leguminasorum bv. viciae 3841” (PLoS ONE, 2018)

How the values were obtained:
[1] = biological target: the molecule itself; assay: crystal structure; X-ray structures of BiuH and variants; sitting drops at 20 °C; SeMet SAD, variants by molecular replacement; homotetramer in the asymmetric unit
[2] = biological target: the molecule itself; assay: SEC; Superdex 200 preparation grade, 130 mL column; 50 mM HEPES pH 7.5, 100 mM NaCl, later 50 mM Tris pH 7.5, 100 mM NaCl; elution compared with sizes expected for monomer, dimer, tetramer and octamer of BiuH

Row | Protein | stoichiometry N [1] | stoichiometry N [2]
1 | SeMet BiuH wild-type (seleno-L-methionine biuret hydrolase from Rhizobium leguminosarum bv. viciae 3841) (enzyme, selenomethionine in place of methionine, Biuret hydrolase BiuH, Rhizobium leguminosarum bv. viciae 3841; synthetic gene encoding a protein identical to UniProt Q1M7F4; His-tag removed in situ with chymotrypsin, without further purification; also called biuret amidohydrolase; source: E. coli BL21 (λDE3), minimal medium with SeMet, purified (Ni-NTA, SEC); in situ chymotrypsin treatment in the crystallisation drop) not shown | 4 | 
2 | BiuH Cys175Ser (enzyme, Biuret hydrolase BiuH, Rhizobium leguminosarum bv. viciae 3841, UniProt Q1M7F4, with Cys175Ser; Crystallised without (6AZN) and with biuret (6AZQ); also called C175S; Cys175Ser BiuH variant; source: E. coli BL21 (λDE3), purified (Ni-NTA, SEC)) not shown | 4 | 
3 | BiuH Lys142Ala with N-carbamoyl-D,L-aspartic acid (enzyme, acyl (thiocarbamate) covalent complex between the deaminated inhibitor N-carbamoyl-D,L-aspartic acid and Cys175, Biuret hydrolase BiuH, Rhizobium leguminosarum bv. viciae 3841, UniProt Q1M7F4, with Lys142Ala; also called K142A; Lys142Ala variant; source: E. coli BL21 (λDE3), purified (Ni-NTA, SEC)) not shown | 4 | 
4 | BiuH Lys142His (enzyme, Biuret hydrolase BiuH, Rhizobium leguminosarum bv. viciae 3841, UniProt Q1M7F4, with Lys142His; also called K142H; source: E. coli BL21 (λDE3), purified (Ni-NTA, SEC)) not shown | 4 | 
5 | BiuH wild type (biuret hydrolase from Rhizobium leguminosarum bv. viciae 3841) (enzyme, Biuret hydrolase BiuH, Rhizobium leguminosarum bv. viciae 3841; synthetic gene encoding a protein identical to UniProt Q1M7F4; Size exclusion followed Ni-NTA directly in the purification, so the tag was probably still on the protein; also called BiuH WT; biuret amidohydrolase; source: E. coli BL21 (λDE3), purified (Ni-NTA, SEC)) not shown |  | 4
